According to patent US20200179497A1:

Molecular target: IVIg (Octagam)
Assay: cell-based or functional assay

Binder	enzyme concentration giving mainly scIgG on SDS-PAGE	enzyme concentration giving an intense scIgG band on SDS-PAGE	also measured
pCART229 (enzyme) MDDYQRNATEAYAKEVPHQITSVWTKGVTPPEQFTQGEDVIHAPYLAHQGWYDITKAFDGKDNLLCGAATAGNMLHWWFDQNKTEIEAYLSKHPEKQKIIFRNQELFDLKAAIDTKDSQTNSQLFNYFRDKAFPNLSARQLGVMPDLVLDMFINGYYLNVFKTQSTDVNRPYQDKDKRGGIFDAVFTRGNQTTLLTARHDLKNKGLNDISTIIKQELTEGRALALSHTYANVSISHVINLWGADFNAEGNLEAIYVTDSDANASIGMKKYFVGINAHGHVAISAKKIEGENIGAQVLGLFTLSSGKDIWQKLSGGGHHHHHH			Conc. of enzyme, 1st IgG heavy chain, IgG to scIgG (gel): 1900 ng/mL; Conc. of enzyme, 2nd IgG heavy chain, scIgG to F(ab')2 (gel): 7500 ng/mL
pCART208 (enzyme) MDDYQRNATEAYAKEVPHQITSVWTKGVTPPEQFTQGEDVIHAPYLAHQGWYDITKAFDGKDNLLCGAATAGNMLHWWFDQNKTEIEAYLSKHPEKQKIIIRNQELFDLKAAIDTKDSQTNSQLFNYFRDKAFPNLSARQLGVMPDLVLDMFINGYYLNVFKTQSTDVNRPYQDKDKRGGIFDAVFTRGDQTTLLTARHDLKNKGLNDISTIIKQELTEGRALALSHTYANVSISHVINLWGADFNAEGNLEAIYVTDSDANASIGMKKYFVGINAHGHVAISAKKIEGENIGAQVLGLFTLSSGKDIWQKLSGGGHHHHHH	0.5 ng/mL		enzyme concentration giving a dominating F(ab')2 band on SDS-PAGE: 1.9 ng/mL
pCART203 (enzyme) MDDYQRNATEAYAKEVPHQITSVWTKGVTPPEQFTQGEDVIHAPYLAHQGWYDITKAFDGKDNLLCGAATAGNMLHWWFDQNKTEIEAYLSKHPEKQKIIFNNQELFDLKAAIDTKDSQTNSQLFNYFRDKAFPNLSARQLGVMPDLVLDMFINGYYLNVFKTQSTDVNRPYQDKDKRGGIFDAVFTRGDQTTLLTARHDLKNKGLNDISTIIKQELTEGRALALSHTYANVSISHVINLWGADFNAEGNLEAIYVTDSDANASIGMKKYFVGINAHGHVAISAKKIEGENIGAQVLGLFTLSSGKDIWQKLSGGGHHHHHH	0.9 ng/mL	0.94 ng/mL	
pCART210 (enzyme) MDDYQRNATEAYAKEVPHQITSVWTKGVTPPEQFTQGEDVIHAPYLANQGWYDITKAFDGKDNLLCGAATAGNMLHWWFDQNKTEIEAYLSKHPEKQKIIFRNQELFDLKEAIRTKDSQTNSQLFEYFRDKAFPYLSARQLGVMPDLVLDMFINGYYLNVFKTQSTDVKRPYQDKDKRGGIFDAVFTRGNQTTLLTARHDLKNKGLNDISTIIKEELTKGRALALSHTYANVSISHVINLWGADFNAEGNLEAIYVTDSDANASIGMKKYFVGINKHGHVAISAKKIEGENIGAQVLGLFTLSSGKDIWQKLNGGGHHHHHH	0.9 ng/mL		
pCART204 (enzyme) MDDYQRNATEAYAKEVPHQITSVWTKGVTPPEQFRYNNEDVIHAPYLAHQGWYDITKAFDGKDNLLCGAATAGNMLHWWFDQNKTEIEAYLSKHPEKQKIIFNNQELFDLKAAIDTKDSQTNSQLFNYFRDKAFPNLSARQLGVMPDLVLDMFINGYYLNVFKTQSTDVNRPYQDKDKRGGIFDAVFTRGDQTTLLTARHDLKNKGLNDISTIIKQELTEGRALALSHTYANVSISHVINLWGADFNAEGNLEAIYVTDSDANASIGMKKYFVGINAHGHVAISAKKIEGENIGAQVLGLFTLSSGKDIWQKLSGGGHHHHHH		0.94 ng/mL	
pCART202 (enzyme) MDDYQRNATEAYAKEVPHQITSVWTKGVTPLTPEQFTQGEDVIHAPYLAHQGWYDITKAFDGKDNLLCGAATAGNMLHWWFDQNKTEIEAYLSKHPEKQKIIFNNQELFDLKAAIDTKDSQTNSQLFNYFRDKAFPNLSARQLGVMPDLVLDMFINGYYLNVFKTQSTDVNRPYQDKDKRGGIFDAVFTRGDQTTLLTARHDLKNKGLNDISTIIKQELTEGRALALSHTYANVSISHVINLWGADFNAEGNLEAIYVTDSDANASIGMKKYFVGINAHGHVAISAKKIEGENIGAQVLGLFTLSSGKDIWQKLSGGGHHHHHH		0.94 ng/mL	
